Experimental data from US20180111972A1.

Assays:
[1] = molecular target: human PDGFR on BJ-5ta human fibroblasts (human) (UniProt P09619); assay: flow cytometry on cells, soluble ligand titrated, anti-FLAG-PE
[2] = molecular target: mouse PDGFR on NIH/3T3 mouse fibroblasts (mouse) (UniProt P05622); assay: as above
[3] = molecular target: human PDGFR on BJ-5ta human fibroblasts (human) (UniProt P09619); assay: flow cytometry on BJ-5ta cells, soluble ligand titrated 5 h at 4 C, anti-FLAG-PE
[4] = molecular target: mouse PDGFR on NIH/3T3 mouse fibroblasts (mouse) (UniProt P05622); assay: flow cytometry on NIH/3T3 cells, soluble ligand titrated 5 h at 4 C, anti-FLAG-PE
[5] = molecular target: human PDGFR on BJ-5ta human fibroblasts (human) (UniProt P09619); assay: flow cytometry titration of the soluble FLAG-tagged protein on BJ-5ta cells, anti-FLAG detection

Chain of scPDGF, single-chain version of wild-type PDGF-BB, soluble, FLAG and hexahistidine tags (ligand) (chain, part): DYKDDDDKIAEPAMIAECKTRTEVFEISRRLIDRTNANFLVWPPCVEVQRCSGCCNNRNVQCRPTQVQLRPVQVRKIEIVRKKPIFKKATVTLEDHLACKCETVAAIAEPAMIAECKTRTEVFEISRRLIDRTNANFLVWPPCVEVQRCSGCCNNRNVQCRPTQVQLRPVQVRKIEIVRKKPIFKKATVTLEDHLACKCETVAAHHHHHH

Kd [1]: 1.5 pM
Kd [2]: 2.5 pM
Kd [3]: 1.5 pM
Kd [4]: 2.7 pM
EC50 (read off the curve) [5]: 1 pM
Substance: scPDGF, single-chain version of wild-type PDGF-BB, soluble, FLAG and hexahistidine tags (ligand)
